{
  "source": "paper PMC7038949",
  "about": "“FRET-Based Aptasensor for the Selective and Sensitive Detection of Lysozyme”",
  "target": "lysozyme (chicken (egg white), UniProt P00698 19-147)",
  "sequence (P00698 19-147)": "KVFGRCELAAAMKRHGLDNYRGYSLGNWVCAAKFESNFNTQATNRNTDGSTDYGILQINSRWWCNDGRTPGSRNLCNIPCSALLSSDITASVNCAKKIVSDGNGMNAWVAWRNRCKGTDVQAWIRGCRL",
  "test": "single-molecule FRET (aptamer displacement); H1 helper strand 1 uM, 10 mM Mg2+; detection limit 30 nM, dynamic range to ~2 uM (not a Kd); 1x TAE-Mg: 40 mM Tris, 20 mM acetic acid, 1 mM EDTA, 10 mM Mg2+, pH 7.4; 1 uM H1 in imaging solution; temperature not stated",
  "conditions": "protein: commercial; label: 3' Cy3 on Cy3 strand; 5' Cy5 on Cy5 strand; partially double-stranded multi-strand assembly; 15 nt of aptamer strand (6 extension + 9 aptamer) paired with B1; lysozyme displaces the aptamer strand",
  "data": [
    {"binder": "lysozyme aptasensor (aptamer annealed to B1, Cy5, top and Cy3 strands) (mixed, 5' biotin-TEG on Cy3 strand) DNA 1: ACTGTCATCAGGGCTAAAGAGTGCAGAGTTACTTAG DNA 2: AGCCCTGATGACAGTAATATAATTCTATA DNA 3: TATAGAATTATATTATATTACGAGTAGTGAGTTCCA DNA 4: ATCAGAAGCTCTC DNA 5: TGGAACTCACTACTCGATTAGTGTATGACCTCTATATGAGAGCTTCTGAT", "values": [
      {"measurement": "binding result", "value": "binds"}
    ]}
  ]
}
